From the Immune Epitope Database (IEDB)

What was measured:
[1] = biological target: HLA-A*02:11; assay: IEDB peptide-MHC binding, purified MHC/direct/fluorescence; filed as Kd, often an IC50 or EC50 that approximates it; ≥ and ≤ were set here for values at or beyond the usual limits of such assays
[2] = biological target: HLA-A*23:01; assay: as above
[3] = biological target: HLA-A*68:02; assay: as above
[4] = biological target: HLA-A*02:03; assay: as above
[5] = biological target: HLA-A*02:19; assay: as above
[6] = biological target: HLA-A*03:01; assay: as above
[7] = biological target: HLA-A*02:12; assay: as above
[8] = biological target: HLA-A*24:03; assay: as above
[9] = biological target: HLA-A*29:02; assay: as above
[10] = biological target: HLA-A*02:16; assay: as above
[11] = biological target: HLA-A*02:01; assay: IEDB peptide-MHC binding, purified MHC/competitive/fluorescence; filed as Kd, often an IC50 or EC50 that approximates it; ≥ and ≤ were set here for values at or beyond the usual limits of such assays
[12] = biological target: HLA-B*15:01; assay: as above
[13] = biological target: HLA-B*27:05; assay: as above; settings: source organism: Orthohantavirus dobravaense
[14] = biological target: HLA-A*69:01; assay: as above
[15] = biological target: HLA-A*26:01; assay: as above
[16] = biological target: HLA-B*46:01; assay: as above
[17] = biological target: HLA-B*15:17; assay: as above
[18] = biological target: HLA-B*51:01; assay: as above
[19] = biological target: HLA-B*18:01; assay: as above
[20] = biological target: HLA-B*39:01; assay: as above
[21] = biological target: HLA-B*57:01; assay: as above
[22] = biological target: HLA-A*24:02; assay: as above
[23] = biological target: HLA-A*02:01; assay: IEDB peptide-MHC binding, purified MHC/competitive/fluorescence; ≥ and ≤ were set here for values at or beyond the usual limits of such assays
[24] = biological target: HLA-B*08:01; assay: as above
[25] = biological target: HLA-A*24:02; assay: as above
[26] = biological target: HLA-B*15:01; assay: as above
[27] = biological target: HLA-A*02:11; assay: IEDB peptide-MHC binding, purified MHC/competitive/fluorescence; filed as Kd, often an IC50 or EC50 that approximates it; ≥ and ≤ were set here for values at or beyond the usual limits of such assays
[28] = biological target: HLA-A*23:01; assay: as above
[29] = biological target: HLA-A*68:02; assay: as above
[30] = biological target: HLA-A*02:03; assay: as above
[31] = biological target: HLA-A*02:19; assay: as above
[32] = biological target: HLA-A*03:01; assay: as above
[33] = biological target: HLA-A*02:12; assay: as above
[34] = biological target: HLA-A*24:03; assay: as above
[35] = biological target: HLA-A*29:02; assay: as above
[36] = biological target: HLA-B*27:03; assay: as above
[37] = biological target: HLA-A*02:16; assay: as above
[38] = biological target: HLA-B*07:02; assay: IEDB peptide-MHC binding, purified MHC/competitive/fluorescence; ≥ and ≤ were set here for values at or beyond the usual limits of such assays; settings: source organism: Zaire ebolavirus
[39] = biological target: HLA-A*26:01; assay: IEDB peptide-MHC binding, purified MHC/direct/fluorescence; filed as Kd, often an IC50 or EC50 that approximates it; ≥ and ≤ were set here for values at or beyond the usual limits of such assays; settings: source organism: Zaire ebolavirus
[40] = biological target: HLA-A*01:01; assay: IEDB peptide-MHC binding, purified MHC/competitive/fluorescence; ≥ and ≤ were set here for values at or beyond the usual limits of such assays; settings: source organism: Zaire ebolavirus
[41] = source organism: Orthohantavirus sangassouense
[42] = source organism: Orthohantavirus dobravaense
[43] = source organism: Vaccinia virus WR
[44] = source organism: Coxiella burnetii 'MSU Goat Q177'
[45] = source organism: Zaire ebolavirus
[46] = source organism: Vibrio parahaemolyticus RIMD 2210633
[47] = source organism: Vaccinia virus
[48] = source organism: Yersinia pestis Nepal516

Sequence: MRNTIMASK
- Kd [1, 41]: ≥ 20 µM
- Kd [2, 41]: ≥ 20 µM
- Kd [3, 41]: ≥ 20 µM
- Kd [4, 41]: ≥ 20 µM
- Kd [5, 41]: ≥ 20 µM
- Kd [6, 41]: ≥ 20 µM
- Kd [7, 41]: ≥ 20 µM
- Kd [8, 41]: ≥ 20 µM
- Kd [9, 41]: ≥ 20 µM
- Kd [10, 41]: ≥ 20 µM
- Kd [11, 42]: ≥ 20 µM
- Kd [12, 42]: ≥ 20 µM
- Kd [13]: 0.144 µM
- Kd [14, 42]: ≥ 20 µM
- Kd [15, 42]: ≥ 20 µM
- Kd [16, 42]: ≥ 20 µM
- Kd [17, 42]: ≥ 20 µM
- Kd [18, 42]: ≥ 20 µM
- Kd [19, 42]: ≥ 20 µM
- Kd [20, 42]: ≥ 20 µM
- Kd [21, 42]: ≥ 20 µM

Sequence: IWGGTSFLF
- Kd ([22]; source organism: Salmonella enterica subsp. enterica serovar Typhi): ≤ 0.0001 µM

Sequence: FGLYKSINV
- IC50 [23, 43]: 0.744 µM
- IC50 [24, 43]: 37 µM

Sequence: KHHTKIDSM
- IC50 ([24]; source organism: Variola virus): ≥ 209 µM
- IC50 ([25]; source organism: Variola virus): 1.69 µM

Sequence: RQLAKAIIT
- IC50 ([26]; source organism: Vaccinia virus Copenhagen): 40.8 µM

Sequence: AVDWYQQRI
- Kd [27, 44]: ≥ 20 µM
- Kd [28, 44]: ≥ 20 µM
- Kd [29, 44]: ≥ 20 µM
- Kd [11, 44]: ≥ 20 µM
- Kd [30, 44]: ≥ 20 µM
- Kd [12, 44]: ≥ 20 µM
- Kd [14, 44]: ≥ 20 µM
- Kd [15, 44]: ≥ 20 µM
- Kd [31, 44]: ≥ 20 µM
- Kd [32, 44]: ≥ 20 µM
- Kd [16, 44]: ≥ 20 µM
- Kd [33, 44]: ≥ 20 µM
- Kd [17, 44]: ≥ 20 µM
- Kd [18, 44]: ≥ 20 µM
- Kd [34, 44]: ≥ 20 µM
- Kd [35, 44]: ≥ 20 µM
- Kd [19, 44]: ≥ 20 µM
- Kd [36, 44]: ≥ 20 µM
- Kd [20, 44]: ≥ 20 µM
- Kd [37, 44]: 0.36 µM
- Kd [21, 44]: ≥ 20 µM

Sequence: AQPKCNPNL
- IC50 [23, 45]: 47.6 µM
- IC50 [26, 45]: ≥ 93.5 µM
- IC50 [38]: ≥ 121 µM
- IC50 [25, 45]: 12.1 µM

Sequence: GTVPTDNPF
- Kd [27, 46]: ≥ 20 µM
- Kd [28, 46]: ≥ 20 µM
- Kd [29, 46]: ≥ 20 µM
- Kd [11, 46]: ≥ 20 µM
- Kd [30, 46]: ≥ 20 µM
- Kd [14, 46]: ≥ 20 µM
- Kd [15, 46]: ≥ 20 µM
- Kd [31, 46]: ≥ 20 µM
- Kd [32, 46]: ≥ 20 µM
- Kd [16, 46]: ≥ 20 µM
- Kd [33, 46]: ≥ 20 µM
- Kd [18, 46]: ≥ 20 µM
- Kd [34, 46]: ≥ 20 µM
- Kd [19, 46]: ≥ 20 µM
- Kd [36, 46]: ≥ 20 µM
- Kd [20, 46]: ≥ 20 µM
- Kd [37, 46]: ≥ 20 µM
- Kd [21, 46]: 5.47 µM

Sequence: IDILRSLET
- IC50 [23, 47]: 44.3 µM
- IC50 [24, 47]: ≥ 514 µM

Sequence: SFERFEIF
- Kd ([22]; source organism: Influenza A virus (A/Harbin/1/1988(H1N2))): 0.237 µM

Sequence: ITPKTHFLF
- Kd ([22]; source organism: Giardia intestinalis ATCC 50581): 0.0002 µM

Sequence: YADGGQWYN
- Kd [27, 48]: 0.0562 µM
- Kd [28, 48]: ≥ 20 µM
- Kd [29, 48]: ≥ 20 µM
- Kd [11, 48]: ≥ 20 µM
- Kd [30, 48]: ≥ 20 µM
- Kd [12, 48]: ≥ 20 µM
- Kd [14, 48]: ≥ 20 µM
- Kd [15, 48]: ≥ 20 µM
- Kd [31, 48]: ≥ 20 µM
- Kd [32, 48]: ≥ 20 µM
- Kd [16, 48]: ≥ 20 µM
- Kd [33, 48]: ≥ 20 µM
- Kd [17, 48]: ≥ 20 µM
- Kd [34, 48]: ≥ 20 µM
- Kd [35, 48]: ≥ 20 µM
- Kd [19, 48]: ≥ 20 µM
- Kd [36, 48]: ≥ 20 µM
- Kd [20, 48]: ≥ 20 µM
- Kd [37, 48]: ≥ 20 µM
- Kd [21, 48]: ≥ 20 µM

Sequence: VSHLTTLAT
- IC50 [23, 45]: ≥ 719 µM
- IC50 [26, 45]: 28.7 µM

Sequence: EAEKQLQQY
- Kd [1, 45]: ≥ 20 µM
- Kd [2, 45]: ≥ 20 µM
- Kd [3, 45]: ≥ 20 µM
- Kd [4, 45]: ≥ 20 µM
- Kd [39]: 2.24 µM
- Kd [5, 45]: ≥ 20 µM
- Kd [6, 45]: ≥ 20 µM
- Kd [7, 45]: ≥ 20 µM
- Kd [8, 45]: ≥ 20 µM
- Kd [9, 45]: ≥ 20 µM
- Kd [10, 45]: ≥ 20 µM
- Kd [11, 45]: ≥ 20 µM
- Kd [12, 45]: ≥ 20 µM
- Kd [14, 45]: ≥ 20 µM
- Kd [16, 45]: ≥ 20 µM
- Kd [17, 45]: ≥ 20 µM
- Kd [18, 45]: ≥ 20 µM
- Kd [19, 45]: ≥ 20 µM
- Kd [36, 45]: ≥ 20 µM
- Kd [20, 45]: ≥ 20 µM
- Kd [21, 45]: ≥ 20 µM
- IC50 [40]: 18.1 µM

Sequence: YQSYSENGM
- IC50 [23, 45]: 27.9 µM
- IC50 [26, 45]: 16.7 µM
